# Test results published in US20020115184.
# B1: B. subtilis SipW protein (signal peptidase) (protein)
# chain: MKLISNILYVIIFTLIIVLTLVVISTRSSGGEPAVFGYTLKSVLSGSMEPEFNTGSLILVKEITDVKELQKGDVITFMQDANTAVTHRIVDITKQGDHLLFKTKGDNNAAADSAPVSDENVRAQYTGFQLPYAGYMLHFASQPIGTAVLLIVPGVMLLVYAFVTISSAIREIERKTKALETDTKDSTMST
# Tests used:
# [1] = molecular target: T1, immature TasA protein (pro-TasA), 34 kDa
# T1 chain: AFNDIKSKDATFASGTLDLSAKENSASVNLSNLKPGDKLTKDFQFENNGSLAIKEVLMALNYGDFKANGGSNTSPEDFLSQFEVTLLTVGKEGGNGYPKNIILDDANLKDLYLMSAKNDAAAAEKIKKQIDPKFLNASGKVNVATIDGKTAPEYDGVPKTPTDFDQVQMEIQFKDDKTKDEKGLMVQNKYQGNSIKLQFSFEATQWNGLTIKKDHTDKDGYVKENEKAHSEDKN
# B. subtilis YqxM protein = molecular target: T2, B. subtilis YqxM protein
# T2 chain: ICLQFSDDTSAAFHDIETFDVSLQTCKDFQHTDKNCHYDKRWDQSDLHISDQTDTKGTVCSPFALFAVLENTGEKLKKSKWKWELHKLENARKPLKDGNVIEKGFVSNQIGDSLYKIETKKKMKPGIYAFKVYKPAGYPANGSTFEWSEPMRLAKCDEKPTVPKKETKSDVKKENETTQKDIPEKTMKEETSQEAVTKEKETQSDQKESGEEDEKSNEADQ
protein,measurement,setting,value
B1,Western blot for mature TasA in a strain where the neo promoter drives sipW and TasA and YqxM is disrupted,[1],A band corresponding to mature TasA was detected in extracts of spores and in both the culture supernatants and lysates of sporangia and vegetative cells. No protein of larger molecular weight that could correspond to immature TasA was detected.
same,Western blot of TasA size in sipW deletion strains (34 kDa immature against 31 kDa mature),[1],a 34 kDa band was detected in both sporangial lysates and vegetative cells
same,Western blot of YqxM in concentrated E. coli culture supernatants,B. subtilis YqxM protein,"when both YqxM and SipW were produced, YqxM was abundant in the culture supernatant and migrated as a smaller 31 kD species"
same,"YqxM associated with the spore, with sipW deleted or under pSpac control",B. subtilis YqxM protein,deletion of sipW resulted in no measurable amount of YqxM associated with the spore
